For one test, the target named is T1, mouse SPNS2 (mouse, UniProt Q91VM4 1-549).
T1 construct: on Flp-in 293 cells that also express human SphK1
T1 sequence: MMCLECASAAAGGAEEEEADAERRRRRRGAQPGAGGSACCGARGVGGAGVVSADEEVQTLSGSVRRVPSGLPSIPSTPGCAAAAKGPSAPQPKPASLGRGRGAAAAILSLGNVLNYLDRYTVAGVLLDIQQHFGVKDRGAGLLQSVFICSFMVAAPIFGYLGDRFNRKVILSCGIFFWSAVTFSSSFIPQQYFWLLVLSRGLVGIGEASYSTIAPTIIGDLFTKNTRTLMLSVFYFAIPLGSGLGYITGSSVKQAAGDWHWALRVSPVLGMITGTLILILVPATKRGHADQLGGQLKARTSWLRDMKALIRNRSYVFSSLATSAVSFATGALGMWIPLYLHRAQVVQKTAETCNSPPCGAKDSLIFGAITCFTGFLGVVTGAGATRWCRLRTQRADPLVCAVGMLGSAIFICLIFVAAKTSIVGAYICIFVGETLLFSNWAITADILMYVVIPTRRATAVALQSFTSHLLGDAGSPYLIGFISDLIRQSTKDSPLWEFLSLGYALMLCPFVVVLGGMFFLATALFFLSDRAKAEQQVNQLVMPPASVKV
The test is described as follows: Cell ELISA. The procedure: (§1) Human and mouse SPNS2 and human SphK1 double stable expression Flp-in 293 cells were added to a poly D lysine coat 96-well plate (Corning, 356461) in a density of 1×10⁵ cells/well and was cultivated overnight, and then the culture medium was removed. An anti-SPNS2 antibody solution was adjusted into 20 μg/mL using 0.2% FBS/3% BSA/PBS, and 0.2% FBS/3% BSA/PBS (60 μL) was added to the antibody diluted solution (20 μL) to prepare seven-step diluted solutions by four fold serial dilution. Each diluted solution of the anti-SPNS2 antibody was added in a volume of 30 μL/well, and reacted for about one hour at room temperature. The antibody solution was removed, and the residue was washed with PBS containing 0.05% Tween 20 (PBS-T) two times, and fixed for about ten minutes at room temperature using 10% buffered formalin (Mildform (Trade mark) 10NM, Wako). After washing with PBS-T one time, a 5000-fold diluted solution of anti-rat IgG antibody HRP conjugate (Southern Biotech, 3030-05) in 0.2% FBS/3% BSA/PBS was added to each well (30 μL), and reacted for about one hour at room temperature. After washing with PBS-T four times, a substrate (TMB; 3, 3′, 5, 5′-tetramethylbenzidin) was added to each well (100 μL) to initiate the reaction. After 20 minutes, 2N sulfuric acid was added to each well (100 μL), and absorbance at 450 nm and 550 nm was measured. […] Each antibody bound to human SPNS2 and mouse SPNS2.

The next test deals with T2, human SPNS2 (human, UniProt Q8IVW8 1-549).
T2 construct: S1P transporter; in Cell ELISA and S1P assays on Flp-in 293 cells that also express human SphK1; also called Spinster homolog 2; native type
T2 sequence: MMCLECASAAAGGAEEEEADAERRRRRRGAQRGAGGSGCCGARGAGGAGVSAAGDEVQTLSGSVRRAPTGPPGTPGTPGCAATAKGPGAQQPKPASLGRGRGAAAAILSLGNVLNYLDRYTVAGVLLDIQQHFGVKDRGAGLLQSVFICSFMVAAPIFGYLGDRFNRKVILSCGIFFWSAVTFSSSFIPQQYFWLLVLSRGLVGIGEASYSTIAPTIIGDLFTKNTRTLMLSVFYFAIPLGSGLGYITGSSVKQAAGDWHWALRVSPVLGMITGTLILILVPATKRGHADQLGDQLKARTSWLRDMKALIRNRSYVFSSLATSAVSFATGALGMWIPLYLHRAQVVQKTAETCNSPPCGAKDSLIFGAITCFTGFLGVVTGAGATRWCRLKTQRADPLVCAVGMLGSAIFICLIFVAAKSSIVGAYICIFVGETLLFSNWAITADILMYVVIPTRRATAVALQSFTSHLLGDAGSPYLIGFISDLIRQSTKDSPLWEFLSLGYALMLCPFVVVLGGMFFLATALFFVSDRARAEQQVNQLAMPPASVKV
Nature of the test: Cell ELISA. On the procedure: as §1

The target of test [1] is T3, Mutant 1 of human SPNS2 (FLAG tag inserted in extracellular loop 1) (human, UniProt Q8IVW8 1-549).
T3 construct: on HEK293 cells; also called extracellular loop 1 mutant
T3 sequence: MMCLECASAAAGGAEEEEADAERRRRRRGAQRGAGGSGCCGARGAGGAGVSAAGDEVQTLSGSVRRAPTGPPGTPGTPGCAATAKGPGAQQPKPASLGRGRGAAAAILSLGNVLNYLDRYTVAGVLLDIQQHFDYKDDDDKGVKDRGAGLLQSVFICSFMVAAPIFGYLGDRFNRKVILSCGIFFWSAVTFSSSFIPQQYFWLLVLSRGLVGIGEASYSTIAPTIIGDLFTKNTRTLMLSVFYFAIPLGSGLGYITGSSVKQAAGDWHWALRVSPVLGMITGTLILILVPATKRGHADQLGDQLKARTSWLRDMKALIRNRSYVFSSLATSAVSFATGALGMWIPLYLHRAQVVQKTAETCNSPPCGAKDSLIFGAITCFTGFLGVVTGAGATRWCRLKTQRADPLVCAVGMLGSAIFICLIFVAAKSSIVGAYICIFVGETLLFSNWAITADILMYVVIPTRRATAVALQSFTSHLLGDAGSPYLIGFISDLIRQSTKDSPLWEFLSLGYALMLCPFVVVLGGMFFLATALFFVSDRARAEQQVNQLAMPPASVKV
The test is described as follows: flow cytometry, FLAG-insertion mutant. The procedure: After the lipofection, the HEK 293 cells cultivated overnight were recovered from the culture dishes, and reacted with a cell staining buffer (BioLegend, 420201) containing an anti-FLAG antibody (Sigma-Aldrich, F1804) and an anti-SPNS2 antibody each in a volume of 20 μg/mL for 30 minutes at room temperature. After washing with a cell staining buffer one time, the anti-FLAG antibody was detected with an anti-mouse IgG-Alexa 647 conjugate antibody, and the anti-SPNS2 antibody was detected with an anti-rat IgG-FITC conjugate antibody with flow cytometer BD LSR Fortessa (Becton Dickinson). The binding ability to each mutant was evaluated with the ratio of the FITC-positive cell rate to the Alexa 647-positive cell rate. In Table 7, symbol (+) indicates a ratio of less than 0.1, symbol (±) indicates a ratio of 0.1 or more and less than 0.5, and symbol (−) indicate a ratio of 0.5 or more.
In general terms: A flow cytometer gives signals particle by particle.

B1: 82-1109A (antibody, IgG2b, V domains shown)
VH: QVQLQQSGVELAKPGSSVKISCKASGNTFTSNYITWIKQTPGQGLEYIGYINTGSGKTYYNEKFKGKATLTADKSSSTAFMQLSSLTPDDSAVYFCASLTGVDYFDDWGQGVMVTVSS
VL: DDIVLTQSPALAPSLGQRATISCRASQSVRMSGYNLMHWYQQKPGQQPKLLIYDASKLASGIPARFSGSGSGTDFTLTIDPVQSDDIATYYCQQSKDDPYTFGAGTKLELRR
In the case of B1, the pEC50 in the test with mouse SPNS2 and in the test with human SPNS2 was 7.83 pEC50 (M) in each case. Besides, in test [1], the “FITC+/Alexa 647+ cell rate ratio” value was at least 0.5 ratio.

B2: 83-1110B (antibody, IgG2b, V domains shown)
VH: EVQLQQSGPEFVRPGTSVKFSCKVSGGSITSYFIHFVKQRPGQGLEWIGKIDPEDDSTKYGEKFKNKATLTADTSSNTAFLKLSSLTSEDTAIYFCTTLTGLDYWGQGVMVTVSS
VL: DIQMTQSPPVLSAAVGDRVTLSCKASRSLNKNLDWYQQKHGETPKLLIYHTHNLQTGIPSRFSGSGSDTDYTLTISSLQTEDVATYYCYQYHSGWTFGGGTRLELRR
On to B2, for which, in the test with mouse SPNS2, the Emax was found to be 1.59 absorbance and the pEC50 was 8.17 pEC50 (M). Further, in the test with human SPNS2, the Emax came out at 1.6 absorbance and the pEC50 was 8.32 pEC50 (M). Moreover, the “FITC+/Alexa 647+ cell rate ratio” value in test [1] was under 0.1 ratio.

B3: 80-1104A (antibody, IgG2b, V domains shown)
VH: EVQLVETGGGLVQPGSSLKLSCSTSGFTFSETWMSWVRQAPGKGLEWVGLIKDKNSNYEANYAESVKGRFTISRDDSKRRVYLQMYTLRDQDTATYYCTSHEDFYYYSSYYFDYWGQGVMVTVSS
VL: DIVLTQSPATLSVTPGESVSLSCRASQGISTSIHWYQQKSNESPRLLIKYASQSMSGIPSRFSGSGSGTDFTLRINRVESEDFSVYYCQQSYNLPLTFGSGTKLEIKR
As for B3, the values for the Emax in the test with mouse SPNS2 and with human SPNS2 were 1.61 absorbance and 1.83 absorbance, respectively. Moreover, the figures for the pEC50 with mouse SPNS2 and with human SPNS2 were 8.32 pEC50 (M) and 8.47 pEC50 (M), respectively. The “FITC+/Alexa 647+ cell rate ratio” value in test [1] is under 0.1 ratio.

B4: 96-1403F (antibody, IgG2b, V domains shown)
VH: EVQLVETGGGLVRPGSSLKLSCATSGFTFSDTWMSWVRQAPGKGLEWVALIKDKNSNSEANYAESIKGRFTISRDDSKSRVYLQMNTLRDQDTATYYCTRHEDFYYYSGYYFDYWGQGVMVTVSS
VL: DIVLTQSPPTLSVTPGESVSLSCRASQGISTSIHWYQQRSNESPRLLIKYASQSIAGIPSRFSGSGSGTDFILSINRVESEDFSVYYCQQTYSLPLTFGPGTKLEVKR
For the molecule B4, in the test with mouse SPNS2, the Emax was found to be 1.78 absorbance and the pEC50 was 7.42 pEC50 (M). Also, in the test with human SPNS2, the Emax is 1.86 absorbance and the pEC50 is 7.76 pEC50 (M). Besides, the “FITC+/Alexa 647+ cell rate ratio” value in test [1] is under 0.1 ratio.

B5: 93-1310F (antibody, IgG2b, V domains shown)
VH: EVQLVETGGGLVQPGSSLKLSCATSGFTFSDTWMSWVRQAPGKGLEWVALIKDKNSNYEANYAESVKGRFTISRDDSKRRVYLQMFTLRDQDTATYYCTSHEDFYYYSSYYFDYWGHGVMVTVSS
VL: DIVLTQSPATLSVTPGESVSLSCRASQGISTSIHWYQQKSNGSPRLLIKYASQSISGIPSRFSGSGSGTDFTLRINRVESEDFSVYYCQQTYSLPLTFGSGTRLEIKR
As for B5, in the test with mouse SPNS2, the Emax amounted to 1.61 absorbance and the pEC50 was 8.29 pEC50 (M). In the test with human SPNS2, the Emax was determined as 1.64 absorbance and the pEC50 was 8.56 pEC50 (M). Besides, the “FITC+/Alexa 647+ cell rate ratio” value in test [1] is under 0.1 ratio.

B6: 33-0503E (antibody, IgG2b, V domains shown)
VH: EVQLVESGGGLVRPGGSMKLSCGASGFIFDNYYMTWVRQAPTKGLEWVASISSSGGNTYYRDSVRGRFTISRDNAGNTLSLQMGSLRAEDTATYHCAKEGYRGRYFDYWGQGVMVTVSS
VL: QVVLTQPNSVSTNLGSTVKLSCKRTTGNIGSNYVNWYQQHEGRSPTTMIYRDDERPDGVPDRFSGSIDRSSNSALLTINNVQTEDEAEYFCQSYSSGIIFGGGTKLTVL
B6: in the test with mouse SPNS2, the Emax was found to be 2.2 absorbance and the pEC50 is 7.66 pEC50 (M). Also, in the test with human SPNS2, the Emax was found to be 2.03 absorbance and the pEC50 is 8.12 pEC50 (M). For the same molecule, the “FITC+/Alexa 647+ cell rate ratio” value in test [1] was under 0.1 ratio.

B7: 94-1311E (antibody, V domains shown)
VH: EVQLQQSGAGLVRPRTSVRLSCKISGDSITAYYVHFVKQRPGQGLEWIGRIDPEDDSTKYSEKFKNKATLTADVSSSTAYLILSSLTSDDSATYFCSTLTGLDYWGQGVMVTVSS
VL: DIQMTQSPPVLSASVGDRVTLSCKASQSVHNKLDWYQQKHGEAPKLLIYYTHNLQTGIPSRFSGSGSGSDYTLTISSLRAEDVATYYCFQYYSGWTFGGGTKLEMKR
On to B7, for which, in the test with mouse SPNS2, the Emax came out at 1.52 absorbance and the pEC50 is 8.2 pEC50 (M). Further, in the test with human SPNS2, the Emax came to 1.61 absorbance and the pEC50 was 8.34 pEC50 (M). In test [1], the “FITC+/Alexa 647+ cell rate ratio” value was under 0.1 ratio.

B8: 49-0703G (antibody, IgG2b, V domains shown)
VH: EVQLVESGGGLVQPGRSMKLSCAASGFTFSNHYMAWVRQAPTKGLEWVASISTGGGNTYYRDSVKGRFTISRDNAKSTLYLQMDSLRSEDTATYYCARQDYSNYMGGFAYWGQGTLVTVSS
VL: QFVLTQPNSVSTNLGSTVKLSCKRSTGNIGNNYVNWYQQYEGRSPTTMIYRDDERPDGVPDRFSGSIDRSSNSALLTINNVQTEDEADYFCQSFSNGMFIFAGGTQLTVL
As for B8, in the test with mouse SPNS2, the Emax was 1.67 absorbance and the pEC50 is 8.09 pEC50 (M). In the test with human SPNS2, the Emax amounted to 1.77 absorbance and the pEC50 is 8.42 pEC50 (M). For the same molecule, in test [1], the “FITC+/Alexa 647+ cell rate ratio” value was under 0.1 ratio.

(Values after patent US20210147523A1 (TEIJIN PHARMA, published 2021).)
